In PMC9482650, “Quantitative fragmentomics allow affinity mapping of interactomes” (Nature Communications, 2022):

Assays:
Experiment in all cases: holdup assay
Design in all cases: key: below the threshold = too weak to quantify, mostly under pKd 3.1 to 4
RADIL, Q96JH8 = target: T1, RADIL, Q96JH8
T1 sequence (Q96JH8 971-1071, limits assumed, looked up): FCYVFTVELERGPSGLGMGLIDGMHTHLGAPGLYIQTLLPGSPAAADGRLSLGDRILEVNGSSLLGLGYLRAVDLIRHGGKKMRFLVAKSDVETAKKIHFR

LIN7B, Q9HAP6 = target: T2, LIN7B, Q9HAP6
T2 sequence (Q9HAP6 88-185, limits assumed, looked up): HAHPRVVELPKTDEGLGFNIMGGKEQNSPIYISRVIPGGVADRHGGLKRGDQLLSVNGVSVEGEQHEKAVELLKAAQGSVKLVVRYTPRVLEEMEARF

DLG1_2, Q12959 = target: DLG1_2, Q12959
NHERF3_1, Q5T2W1 = target: T3, NHERF3_1, Q5T2W1
T3 sequence (Q5T2W1 4-100, limits assumed, looked up): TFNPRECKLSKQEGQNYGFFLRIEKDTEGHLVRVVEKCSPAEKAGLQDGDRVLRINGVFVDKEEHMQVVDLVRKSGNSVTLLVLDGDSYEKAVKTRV

Inadl_2, Q8NI35 = target: Inadl_2, Q8NI35
MAGI2_2, Q86UL8 = target: MAGI2_2, Q86UL8
TJP2_1, Q9UDY2 = target: TJP2_1, Q9UDY2
TIAM2, Q8IVF5 = target: T4, TIAM2, Q8IVF5
T4 sequence (Q8IVF5 885-986, limits assumed, looked up): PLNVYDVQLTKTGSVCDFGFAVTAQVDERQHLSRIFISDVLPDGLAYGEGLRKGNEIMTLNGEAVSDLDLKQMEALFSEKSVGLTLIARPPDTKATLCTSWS

IL16_4, Q14005 = target: IL16_4, Q14005
FRMPD4, Q14CM0 = target: FRMPD4, Q14CM0
GRIP2_5, Q9C0E4 = target: GRIP2_5, Q9C0E4
LNX2_3, Q8N448 = target: T5, LNX2_3, Q8N448
T5 sequence (Q8N448 463-564, limits assumed, looked up): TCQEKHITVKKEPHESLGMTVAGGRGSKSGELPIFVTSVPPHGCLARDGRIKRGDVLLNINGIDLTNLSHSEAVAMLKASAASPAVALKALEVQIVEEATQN

PARD3_3, Q8TEW0 = target: PARD3_3, Q8TEW0
ARHGEF11, O15085 = target: T6, ARHGEF11, O15085
T6 sequence (O15085 42-136, limits assumed, looked up): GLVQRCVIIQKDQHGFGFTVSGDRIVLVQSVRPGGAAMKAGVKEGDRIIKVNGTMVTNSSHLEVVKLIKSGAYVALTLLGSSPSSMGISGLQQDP

IL16_3, Q14005 = target: IL16_3, Q14005
DVL3, Q92997 = target: T7, DVL3, Q92997
T7 sequence (Q92997 244-331, limits assumed, looked up): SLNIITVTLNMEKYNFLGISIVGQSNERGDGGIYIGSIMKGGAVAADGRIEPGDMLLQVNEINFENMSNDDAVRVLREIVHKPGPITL

LNX2_2, Q8N448 = target: T8, LNX2_2, Q8N448
T8 sequence (Q8N448 334-432, limits assumed, looked up): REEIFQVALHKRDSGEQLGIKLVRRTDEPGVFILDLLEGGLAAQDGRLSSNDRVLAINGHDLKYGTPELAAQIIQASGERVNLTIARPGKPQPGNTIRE

DLG3_3, Q92796 = target: T9, DLG3_3, Q92796
T9 sequence (Q92796 374-475, limits assumed, looked up): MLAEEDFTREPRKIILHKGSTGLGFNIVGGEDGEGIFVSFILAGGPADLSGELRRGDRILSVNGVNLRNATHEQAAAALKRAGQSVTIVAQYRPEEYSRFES

MPP2, Q14168 = target: T10, MPP2, Q14168
T10 sequence (Q14168 180-250, limits assumed, looked up): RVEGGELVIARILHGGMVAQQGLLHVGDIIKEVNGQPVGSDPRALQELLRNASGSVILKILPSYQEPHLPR

SNX27, Q96L92 = target: SNX27, Q96L92
MAST2, Q6P0Q8 = target: MAST2, Q6P0Q8
GRIP1_5, Q9Y3R0 = target: T11, GRIP1_5, Q9Y3R0
T11 sequence (Q9Y3R0 568-668, limits assumed, looked up): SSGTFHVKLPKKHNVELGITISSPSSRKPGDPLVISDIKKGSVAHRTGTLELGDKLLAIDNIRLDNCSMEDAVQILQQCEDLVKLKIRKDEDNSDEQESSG

NOS1, P29475 = target: NOS1, P29475
GRIP1_4, Q9Y3R0 = target: T12, GRIP1_4, Q9Y3R0
T12 sequence (Q9Y3R0 467-571, limits assumed, looked up): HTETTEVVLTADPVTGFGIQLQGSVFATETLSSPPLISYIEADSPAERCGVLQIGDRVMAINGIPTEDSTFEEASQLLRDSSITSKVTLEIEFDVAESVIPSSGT

GIPC2, Q8TF65 = target: GIPC2, Q8TF65
LAP2, Q96RT1 = target: LAP2, Q96RT1
[1] = plain residues with an end cap or a label only (N-terminal biotin on a linker: ado-ado)
[2] = modified: phospho on T at position -2 from the C-terminal residue

IL16_4, Q14005, sequence (Q14005 1229-1329): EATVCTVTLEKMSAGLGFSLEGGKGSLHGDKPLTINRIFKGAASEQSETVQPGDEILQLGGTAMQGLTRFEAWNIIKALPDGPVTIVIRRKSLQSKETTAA
TJP2_1, Q9UDY2, sequence (Q9UDY2 24-128): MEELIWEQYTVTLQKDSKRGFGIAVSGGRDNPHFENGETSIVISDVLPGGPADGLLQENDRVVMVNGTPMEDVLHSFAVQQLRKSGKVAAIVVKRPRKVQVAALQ
GIPC2, Q8TF65, sequence (Q8TF65 112-203): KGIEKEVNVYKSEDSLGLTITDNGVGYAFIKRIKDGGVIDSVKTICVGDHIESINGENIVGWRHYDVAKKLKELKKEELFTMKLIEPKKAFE
PARD3_3, Q8TEW0, sequence (Q8TEW0 582-685): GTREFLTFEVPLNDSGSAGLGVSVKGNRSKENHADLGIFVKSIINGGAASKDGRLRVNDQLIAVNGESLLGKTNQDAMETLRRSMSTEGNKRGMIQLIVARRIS
GRIP2_5, Q9C0E4, sequence (Q9C0E4 544-642): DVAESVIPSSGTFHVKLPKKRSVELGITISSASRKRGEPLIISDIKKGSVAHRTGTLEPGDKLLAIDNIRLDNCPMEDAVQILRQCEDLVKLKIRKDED
IL16_3, Q14005, sequence (Q14005 1107-1207): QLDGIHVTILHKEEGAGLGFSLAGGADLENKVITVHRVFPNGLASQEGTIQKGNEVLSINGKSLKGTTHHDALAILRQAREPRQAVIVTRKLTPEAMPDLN
DLG1_2, Q12959, sequence (Q12959 314-412): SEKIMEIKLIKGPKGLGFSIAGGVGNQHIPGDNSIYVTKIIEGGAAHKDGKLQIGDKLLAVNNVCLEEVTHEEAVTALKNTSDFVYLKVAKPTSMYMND
MAGI2_2, Q86UL8, sequence (Q86UL8 410-522): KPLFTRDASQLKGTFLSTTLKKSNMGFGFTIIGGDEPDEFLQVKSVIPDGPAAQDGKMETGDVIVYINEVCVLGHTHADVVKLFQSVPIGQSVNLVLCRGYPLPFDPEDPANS
MAST2, Q6P0Q8, sequence (Q6P0Q8 1099-1202): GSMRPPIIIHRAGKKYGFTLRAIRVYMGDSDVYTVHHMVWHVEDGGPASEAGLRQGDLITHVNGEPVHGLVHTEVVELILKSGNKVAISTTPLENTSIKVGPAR
FRMPD4, Q14CM0, sequence (Q14CM0 67-160): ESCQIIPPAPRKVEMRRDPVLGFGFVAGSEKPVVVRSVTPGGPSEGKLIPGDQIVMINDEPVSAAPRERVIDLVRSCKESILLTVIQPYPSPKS
Inadl_2, Q8NI35, sequence (Q8NI35 238-335): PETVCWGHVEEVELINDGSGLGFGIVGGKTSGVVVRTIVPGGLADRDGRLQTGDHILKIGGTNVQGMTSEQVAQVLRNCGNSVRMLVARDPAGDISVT
NOS1, P29475, sequence (P29475 9-101): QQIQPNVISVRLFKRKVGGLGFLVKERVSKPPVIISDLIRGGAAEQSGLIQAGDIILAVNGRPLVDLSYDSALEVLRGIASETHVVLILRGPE
LAP2, Q96RT1, sequence (Q96RT1 other isoform, or with tags, fused parts or gaps): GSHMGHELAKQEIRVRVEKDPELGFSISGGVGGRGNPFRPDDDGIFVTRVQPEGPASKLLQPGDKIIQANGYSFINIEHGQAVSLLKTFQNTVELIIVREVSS

B1: TNRC6B, Q9UPQ9 (peptide)
chain: DLLGGGSDSI
- pKd (RADIL, Q96JH8; [1]): below the threshold
- pKd (LIN7B, Q9HAP6; [1]): 3.61
- pKd (DLG1_2, Q12959; [1]): below the threshold
- pKd (NHERF3_1, Q5T2W1; [1]): below the threshold
- pKd (Inadl_2, Q8NI35; [1]): below the threshold
- pKd (MAGI2_2, Q86UL8; [1]): below the threshold
- pKd (TJP2_1, Q9UDY2; [1]): below the threshold
- pKd (TIAM2, Q8IVF5; [1]): 3.97
- pKd (IL16_4, Q14005; [1]): 3.61
- pKd (FRMPD4, Q14CM0; [1]): 3.56
- pKd (GRIP2_5, Q9C0E4; [1]): below the threshold
- pKd (LNX2_3, Q8N448; [1]): below the threshold
- pKd (PARD3_3, Q8TEW0; [1]): below the threshold
- pKd (ARHGEF11, O15085; [1]): 3.65
- pKd (IL16_3, Q14005; [1]): below the threshold
- pKd (DVL3, Q92997; [1]): below the threshold
- pKd (LNX2_2, Q8N448; [1]): below the threshold
- pKd (DLG3_3, Q92796; [1]): below the threshold
- pKd (MPP2, Q14168; [1]): below the threshold
- pKd (SNX27, Q96L92; [1]): below the threshold
- pKd (MAST2, Q6P0Q8; [1]): below the threshold
- pKd (GRIP1_5, Q9Y3R0; [1]): below the threshold
- pKd (NOS1, P29475; [1]): 3.9
- pKd (GRIP1_4, Q9Y3R0; [1]): below the threshold
- pKd (GIPC2, Q8TF65; [1]): 3.55
- pKd (LAP2, Q96RT1; [1]): below the threshold

B2: ADRA1D, P25100 (peptide)
chain: DYSNLRETDI
- pKd (RADIL, Q96JH8; [1]): below the threshold
- pKd (LIN7B, Q9HAP6; [1]): 3.62
- pKd (DLG1_2, Q12959; [1]): 4.74
- pKd (NHERF3_1, Q5T2W1; [1]): below the threshold
- pKd (Inadl_2, Q8NI35; [1]): below the threshold
- pKd (MAGI2_2, Q86UL8; [1]): below the threshold
- pKd (TJP2_1, Q9UDY2; [1]): below the threshold
- pKd (TIAM2, Q8IVF5; [1]): below the threshold
- pKd (IL16_4, Q14005; [1]): below the threshold
- pKd (FRMPD4, Q14CM0; [1]): below the threshold
- pKd (GRIP2_5, Q9C0E4; [1]): below the threshold
- pKd (LNX2_3, Q8N448; [1]): below the threshold
- pKd (PARD3_3, Q8TEW0; [1]): 3.51
- pKd (ARHGEF11, O15085; [1]): below the threshold
- pKd (IL16_3, Q14005; [1]): below the threshold
- pKd (DVL3, Q92997; [1]): below the threshold
- pKd (LNX2_2, Q8N448; [1]): below the threshold
- pKd (DLG3_3, Q92796; [1]): below the threshold
- pKd (MPP2, Q14168; [1]): below the threshold
- pKd (SNX27, Q96L92; [1]): 4.21
- pKd (MAST2, Q6P0Q8; [1]): 5.22
- pKd (GRIP1_5, Q9Y3R0; [1]): below the threshold
- pKd (NOS1, P29475; [1]): below the threshold
- pKd (GRIP1_4, Q9Y3R0; [1]): below the threshold
- pKd (GIPC2, Q8TF65; [1]): 3.8
- pKd (LAP2, Q96RT1; [1]): 3.84

B3: TMEM178A, Q8NBL3 (peptide)
chain: QLKSGRDSTV
- pKd (RADIL, Q96JH8; [1]): 3.51
- pKd (LIN7B, Q9HAP6; [1]): below the threshold
- pKd (DLG1_2, Q12959; [1]): 4.64
- pKd (NHERF3_1, Q5T2W1; [1]): below the threshold
- pKd (Inadl_2, Q8NI35; [1]): below the threshold
- pKd (MAGI2_2, Q86UL8; [1]): 4
- pKd (TJP2_1, Q9UDY2; [1]): below the threshold
- pKd (TIAM2, Q8IVF5; [1]): below the threshold
- pKd (IL16_4, Q14005; [1]): 3.83
- pKd (FRMPD4, Q14CM0; [1]): 3.61
- pKd (GRIP2_5, Q9C0E4; [1]): below the threshold
- pKd (LNX2_3, Q8N448; [1]): below the threshold
- pKd (PARD3_3, Q8TEW0; [1]): 3.5
- pKd (ARHGEF11, O15085; [1]): 4.11
- pKd (IL16_3, Q14005; [1]): below the threshold
- pKd (DVL3, Q92997; [1]): below the threshold
- pKd (LNX2_2, Q8N448; [1]): 3.49
- pKd (DLG3_3, Q92796; [1]): 3.66
- pKd (MPP2, Q14168; [1]): below the threshold
- pKd (SNX27, Q96L92; [1]): 4.01
- pKd (MAST2, Q6P0Q8; [1]): 4.08
- pKd (GRIP1_5, Q9Y3R0; [1]): below the threshold
- pKd (NOS1, P29475; [1]): 3.52
- pKd (GRIP1_4, Q9Y3R0; [1]): 3.56
- pKd (GIPC2, Q8TF65; [1]): 3.87
- pKd (LAP2, Q96RT1; [1]): 3.63

B4: HPV33-E6_-2P, P06427 (peptide)
chain: SRSRRRETAL
- pKd (RADIL, Q96JH8; [2]): below the threshold
- pKd (LIN7B, Q9HAP6; [2]): below the threshold
- pKd (DLG1_2, Q12959; [2]): below the threshold
- pKd (NHERF3_1, Q5T2W1; [2]): below the threshold
- pKd (Inadl_2, Q8NI35; [2]): below the threshold
- pKd (MAGI2_2, Q86UL8; [2]): below the threshold
- pKd (TJP2_1, Q9UDY2; [2]): below the threshold
- pKd (TIAM2, Q8IVF5; [2]): below the threshold
- pKd (IL16_4, Q14005; [2]): below the threshold
- pKd (FRMPD4, Q14CM0; [2]): 3.73
- pKd (GRIP2_5, Q9C0E4; [2]): below the threshold
- pKd (LNX2_3, Q8N448; [2]): below the threshold
- pKd (PARD3_3, Q8TEW0; [2]): below the threshold
- pKd (ARHGEF11, O15085; [2]): below the threshold
- pKd (IL16_3, Q14005; [2]): below the threshold
- pKd (DVL3, Q92997; [2]): below the threshold
- pKd (LNX2_2, Q8N448; [2]): below the threshold
- pKd (DLG3_3, Q92796; [2]): below the threshold
- pKd (MPP2, Q14168; [2]): below the threshold
- pKd (SNX27, Q96L92; [2]): below the threshold
- pKd (MAST2, Q6P0Q8; [2]): 3.62
- pKd (GRIP1_5, Q9Y3R0; [2]): below the threshold
- pKd (NOS1, P29475; [2]): 3.75
- pKd (GRIP1_4, Q9Y3R0; [2]): below the threshold
- pKd (GIPC2, Q8TF65; [2]): below the threshold
- pKd (LAP2, Q96RT1; [2]): below the threshold

B5: SORCS3, Q9UPU3 (peptide)
chain: TKEIPNCTSV
- pKd (RADIL, Q96JH8; [1]): 4.05
- pKd (LIN7B, Q9HAP6; [1]): below the threshold
- pKd (DLG1_2, Q12959; [1]): 4.43
- pKd (NHERF3_1, Q5T2W1; [1]): 4.36
- pKd (Inadl_2, Q8NI35; [1]): below the threshold
- pKd (MAGI2_2, Q86UL8; [1]): 4.29
- pKd (TJP2_1, Q9UDY2; [1]): below the threshold
- pKd (TIAM2, Q8IVF5; [1]): below the threshold
- pKd (IL16_4, Q14005; [1]): below the threshold
- pKd (FRMPD4, Q14CM0; [1]): 3.65
- pKd (GRIP2_5, Q9C0E4; [1]): below the threshold
- pKd (LNX2_3, Q8N448; [1]): below the threshold
- pKd (PARD3_3, Q8TEW0; [1]): below the threshold
- pKd (ARHGEF11, O15085; [1]): 4.82
- pKd (IL16_3, Q14005; [1]): below the threshold
- pKd (DVL3, Q92997; [1]): below the threshold
- pKd (LNX2_2, Q8N448; [1]): 4.52
- pKd (DLG3_3, Q92796; [1]): 4
- pKd (MPP2, Q14168; [1]): below the threshold
- pKd (SNX27, Q96L92; [1]): 5.16
- pKd (MAST2, Q6P0Q8; [1]): 5.82
- pKd (GRIP1_5, Q9Y3R0; [1]): below the threshold
- pKd (NOS1, P29475; [1]): 3.57
- pKd (GRIP1_4, Q9Y3R0; [1]): below the threshold
- pKd (GIPC2, Q8TF65; [1]): 3.83
- pKd (LAP2, Q96RT1; [1]): 3.98
